System: GST-Ras [GST: P08515]
Sequence (P08515 whole entry, looked up): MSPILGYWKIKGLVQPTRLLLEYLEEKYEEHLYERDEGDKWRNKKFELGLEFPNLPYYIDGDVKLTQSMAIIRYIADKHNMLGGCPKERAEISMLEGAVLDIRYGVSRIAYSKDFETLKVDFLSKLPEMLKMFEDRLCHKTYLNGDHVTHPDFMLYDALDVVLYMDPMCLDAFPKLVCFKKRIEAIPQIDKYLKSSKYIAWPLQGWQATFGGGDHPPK

Flag-tagged full-length RasGRF2
fold Ras activation in vitro (bound 32P-GTP, against Ras without GRFs set to 1): the 4.5 fold activation conferred by GRF2, used as a control

Reference: patent US20020143164
